Experimental data published in US20250277045A1.

Molecular target: human BCMA recombinant antigen (human) (UniProt Q02223)
Test: competition ELISA, coated human BCMA, antibody varied, then biotinylated human APRIL at 240 ng/mL, SA-HRP

Chain of human BCMA recombinant antigen (human) (Q02223 1-53): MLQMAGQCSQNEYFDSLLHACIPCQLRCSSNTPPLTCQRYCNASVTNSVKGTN

REGN5458 (bispecific antibody)
IC50 (read off the curve): 3 nM
